Results from PMC3592467 (Nucleic Acids Research, 2012).

Key:
CDC5L–GFP = CDC5L–GFP (UniProt Q99459 1-802); assay: affinity purification with mass spectrometry
EED-GFP = EED-GFP (UniProt O75530 1-441); assay: affinity purification with mass spectrometry
Sequence of EED-GFP (O75530 whole entry): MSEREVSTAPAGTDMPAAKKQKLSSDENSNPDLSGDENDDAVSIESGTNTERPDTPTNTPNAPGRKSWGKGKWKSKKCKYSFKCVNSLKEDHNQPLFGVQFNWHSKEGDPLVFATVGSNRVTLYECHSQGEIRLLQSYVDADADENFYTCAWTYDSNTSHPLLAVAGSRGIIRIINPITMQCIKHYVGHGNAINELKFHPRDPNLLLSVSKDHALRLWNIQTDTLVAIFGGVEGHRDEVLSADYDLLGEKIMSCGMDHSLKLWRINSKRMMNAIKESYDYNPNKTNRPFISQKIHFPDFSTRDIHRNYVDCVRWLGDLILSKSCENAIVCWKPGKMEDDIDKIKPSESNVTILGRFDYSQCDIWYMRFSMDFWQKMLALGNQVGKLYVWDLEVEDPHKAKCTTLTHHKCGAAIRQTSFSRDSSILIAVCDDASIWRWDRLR

Sequence of CDC5L–GFP (Q99459 whole entry): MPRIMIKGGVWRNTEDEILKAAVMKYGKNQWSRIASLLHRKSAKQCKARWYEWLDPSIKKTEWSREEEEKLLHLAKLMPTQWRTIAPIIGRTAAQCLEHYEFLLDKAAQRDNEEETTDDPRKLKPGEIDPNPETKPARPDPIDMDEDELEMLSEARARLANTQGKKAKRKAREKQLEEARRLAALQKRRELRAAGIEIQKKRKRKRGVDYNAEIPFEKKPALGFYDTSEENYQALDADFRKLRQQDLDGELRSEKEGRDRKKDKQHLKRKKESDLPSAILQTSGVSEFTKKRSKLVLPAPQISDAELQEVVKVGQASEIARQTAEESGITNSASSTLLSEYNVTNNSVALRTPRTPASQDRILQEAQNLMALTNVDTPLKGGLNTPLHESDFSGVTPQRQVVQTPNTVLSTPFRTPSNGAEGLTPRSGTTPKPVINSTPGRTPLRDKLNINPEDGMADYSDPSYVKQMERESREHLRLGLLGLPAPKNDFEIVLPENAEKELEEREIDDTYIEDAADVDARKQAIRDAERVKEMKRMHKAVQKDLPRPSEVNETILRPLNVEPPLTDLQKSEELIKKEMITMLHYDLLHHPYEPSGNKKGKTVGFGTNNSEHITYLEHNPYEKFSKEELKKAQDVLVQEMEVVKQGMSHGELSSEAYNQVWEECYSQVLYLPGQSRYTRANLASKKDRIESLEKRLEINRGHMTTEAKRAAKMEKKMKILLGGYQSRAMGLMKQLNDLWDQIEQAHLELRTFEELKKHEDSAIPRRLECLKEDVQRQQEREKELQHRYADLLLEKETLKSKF

B1: PRP19 (natural protein)
chain: MSLICSISNEVPEHPCVSPVSNHVYERRLIEKYIAENGTDPINNQPLSEEQLIDIKVAHPIRPKPPSATSIPAILKALQDEWDAVMLHSFTLRQQLQTTRQELSHALYQHDAACRVIARLTKEVTAAREALATLKPQAGLIVPQAVPSSQPSVVGAGEPMDLGELVGMTPEIIQKLQDKATVLTTERKKRGKTVPEELVKPEELSKYRQVASHVGLHSASIPGILALDLCPSDTNKILTGGADKNVVVFDKSSEQILATLKGHTKKVTSVVFHPSQDLVFSASPDATIRIWSVPNASCVQVVRAHESAVTGLSLHATGDYLLSSSDDQYWAFSDIQTGRVLTKVTDETSGCSLTCAQFHPDGLIFGTGTMDSQIKIWDLKERTNVANFPGHSGPITSIAFSENGYYLATAADDSSVKLWDLRKLKNFKTLQLDNNFEVKSLIFDQSGTYLALGGTDVQIYICKQWTEILHFTEHSGLTTGVAFGHHAKFIASTGMDRSLKFYSL
stoichiometry N (CDC5L–GFP): 2.08 relative to CDC5L
stoichiometry with CDC5L as a dimer (CDC5L 2) (CDC5L–GFP): 4.16 per CDC5L dimer

B2: CTNNBL1 (natural protein)
chain: MDVGELLSYQPNRGTKRPRDDEEEEQKMRRKQTGTRERGRYREEEMTVVEEADDDKKRLLQIIDRDGEEEEEEEEPLDESSVKKMILTFEKRSYKNQELRIKFPDNPEKFMESELDLNDIIQEMHVVATMPDLYHLLVELNAVQSLLGLLGHDNTDVSIAVVDLLQELTDIDTLHESEEGAEVLIDALVDGQVVALLVQNLERLDESVKEEADGVHNTLAIVENMAEFRPEMCTEGAQQGLLQWLLKRLKAKMPFDANKLYCSEVLAILLQDNDENRELLGELDGIDVLLQQLSVFKRHNPSTAEEQEMMENLFDSLCSCLMLSSNRERFLKGEGLQLMNLMLREKKISRSSALKVLDHAMIGPEGTDNCHKFVDILGLRTIFPLFMKSPRKIKKVGTTEKEHEEHVCSILASLLRNLRGQQRTRLLNKFTENDSEKVDRLMELHFKYLGAMQVADKKIEGEKHDMVRRGEIIDNDTEEEFYLRRLDAGLFVLQHICYIMAEICNANVPQIRQRVHQILNMRGSSIKIVRHIIKEYAENIGDGRSPEFRENEQKRILGLLENF
stoichiometry N (CDC5L–GFP): 0.06 relative to CDC5L
stoichiometry with CDC5L as a dimer (CDC5L 2) (CDC5L–GFP): 0.12 per CDC5L dimer

B3: Spf27 (natural protein)
chain: MAGTGLVAGEVVVDALPYFDQGYEAPGVREAAAALVEEETRRYRPTKNYLSYLTAPDYSAFETDIMRNEFERLAARQPIELLSMKRYELPAPSSGQKNDITAWQECVNNSMAQLEHQAVRIENLELMSQHGCNAWKVYNENLVHMIEHAQKELQKLRKHIQDLNWQRKNMQLTAGSKLREMESNWVSLVSKNYEIERTIVQLENEIYQIKQQHGEANKENIRQDF
stoichiometry N (CDC5L–GFP): 0.62 relative to CDC5L
stoichiometry with CDC5L as a dimer (CDC5L 2) (CDC5L–GFP): 1.24 per CDC5L dimer

B4: PLRG1 (natural protein)
chain: MVEEVQKHSVHTLVFRSLKRTHDMFVADNGKPVPLDEESHKRKMAIKLRNEYGPVLHMPTSKENLKEKGPQNATDSYVHKQYPANQGQEVEYFVAGTHPYPPGPGVALTADTKIQRMPSESAAQSLAVALPLQTKADANRTAPSGSEYRHPGASDRPQPTAMNSIVMETGNTKNSALMAKKAPTMPKPQWHPPWKLYRVISGHLGWVRCIAVEPGNQWFVTGSADRTIKIWDLASGKLKLSLTGHISTVRGVIVSTRSPYLFSCGEDKQVKCWDLEYNKVIRHYHGHLSAVYGLDLHPTIDVLVTCSRDSTARIWDVRTKASVHTLSGHTNAVATVRCQAAEPQIITGSHDTTIRLWDLVAGKTRVTLTNHKKSVRAVVLHPRHYTFASGSPDNIKQWKFPDGSFIQNLSGHNAIINTLTVNSDGVLVSGADNGTMHLWDWRTGYNFQRVHAAVQPGSLDSESGIFACAFDQSESRLLTAEADKTIKVYREDDTATEETHPVSWKPEIIKRKRF
stoichiometry N (CDC5L–GFP): 0.37 relative to CDC5L
stoichiometry with CDC5L as a dimer (CDC5L 2) (CDC5L–GFP): 0.72 per CDC5L dimer

B5: AEBP2 (natural protein)
chain: MAAAITDMADLEELSRLSPLPPGSPGSAARGRAEPPEEEEEEEEEEEEAEAEAVAALLLNGGSGGGGGGGGGGVGGGEAETMSEPSPESASQAGEDEDEEEDDEEEEDESSSSGGGEEESSAESLVGSSGGSSSDETRSLSPGAASSSSGDGDGKEGLEEPKGPRGSQGGGGGGSSSSSVVSSGGDEGYGTGGGGSSATSGGRRGSLEMSSDGEPLSRMDSEDSISSTIMDVDSTISSGRSTPAMMNGQGSTTSSSKNIAYNCCWDQCQACFNSSPDLADHIRSIHVDGQRGGVFVCLWKGCKVYNTPSTSQSWLQRHMLTHSGDKPFKCVVGGCNASFASQGGLARHVPTHFSQQNSSKVSSQPKAKEESPSKAGMNKRRKLKNKRRRSLPRPHDFFDAQTLDAIRHRAICFNLSAHIESLGKGHSVVFHSTVIAKRKEDSGKIKLLLHWMPEDILPDVWVNESERHQLKTKVVHLSKLPKDTALLLDPNIYRTMPQKRLKRTLIRKVFNLYLSKQ
stoichiometry N (EED-GFP): 0.2 relative to EED

B6: Jarid2 (natural protein)
chain: MSKERPKRNIIQKKYDDSDGIPWSEERVVRKVLYLSLKEFKNSQKRQHAEGIAGSLKTVNGLLGNDQSKGLGPASEQSENEKDDASQVSSTSNDVSSSDFEEGPSRKRPRLQAQRKFAQSQPNSPSTTPVKIVEPLLPPPATQISDLSKRKPKTEDFLTFLCLRGSPALPNSMVYFGSSQDEEEVEEEDDETEDVKTATNNASSSCQSTPRKGKTHKHVHNGHVFNGSSRSTREKEPVQKHKSKEATPAKEKHSDHRADSRREQASANHPAAAPSTGSSAKGLAATHHHPPLHRSAQDLRKQVSKVNGVTRMSSLGAGVTSAKKMREVRPSPSKTVKYTATVTKGAVTYTKAKRELVKDTKPNHHKPSSAVNHTISGKTESSNAKTRKQVLSLGGASKSTGPAVNGLKVSGRLNPKSCTKEVGGRQLREGLQLREGLRNSKRRLEEAHQAEKPQSPPKKMKGAAGPAEGPGKKAPAERGLLNGHVKKEVPERSLERNRPKRATAGKSTPGRQAHGKADSASCENRSTSQPESVHKPQDSGKAEKGGGKAGWAAMDEIPVLRPSAKEFHDPLIYIESVRAQVEKFGMCRVIPPPDWRPECKLNDEMRFVTQIQHIHKLGRRWGPNVQRLACIKKHLKSQGITMDELPLIGGCELDLACFFRLINEMGGMQQVTDLKKWNKLADMLRIPRTAQDRLAKLQEAYCQYLLSYDSLSPEEHRRLEKEVLMEKEILEKRKGPLEGHTENDHHKFHPLPRFEPKNGLIHGVAPRNGFRSKLKEVGQAQLKTGRRRLFAQEKEVVKEEEEDKGVLNDFHKCIYKGRSVSLTTFYRTARNIMSMCFSKEPAPAEIEQEYWRLVEEKDCHVAVHCGKVDTNTHGSGFPVGKSEPFSRHGWNLTVLPNNTGSILRHLGAVPGVTIPWLNIGMVFSTSCWSRDQNHLPYIDYLHTGADCIWYCIPAEEENKLEDVVHTLLQANGTPGLQMLESNVMISPEVLCKEGIKVHRTVQQSGQFVVCFPGSFVSKVCCGYSVSETVHFATTQWTSMGFETAKEMKRRHIAKPFSMEKLLYQIAQAEAKKENGPTLSTISALLDELRDTELRQRRQLFEAGLHSSARYGSHDGSSTVADGKKKPRKWLQLETSERRCQICQHLCYLSMVVQENENVVFCLECALRHVEKQKSCRGLKLMYRYDEEQIISLVNQICGKVSGKNGSIENCLSKPTPKRGPRKRATVDVPPSRLSASSSSKSASSSS
stoichiometry N (EED-GFP): 0.12 relative to EED

B7: C17orf96 (natural protein)
chain: METLCPAPRLAVPASPRGSPCSPTPRKPCRGTQEFSPLCLRALAFCALAKPRASSLGPGPGELAARSPVLRGPQAPLRPGGWAPDGLKHLWAPTGRPGVPNTAAGEDADVAACPRRGEEEEGGGGFPHFGVRSCAPPGRCPAPPHPRESTTSFASAPPRPAPGLEPQRGPAASPPQEPSSRPPSPPAGLSTEPAGPGTAPRPFLPGQPAEVDGNPPPAAPEAPAASPSTASPAPAAPGDLRQEHFDRLIRRSKLWCYAKGFALDTPSLRRGPERPPAKGPARGAAKKRRLPAPPPRTAQPRRPAPTLPTTSTFSLLNCFPCPPALVVGEDGDLKPASSLRLQGDSKPPPAHPLWRWQMGGPAVPEPPGLKFWGINMDES
stoichiometry N (EED-GFP): 0.47 relative to EED

B8: C10orf12 (natural protein)
chain: MQRMIQQFAAEYTSKNSSTQDPSQPNSTKNQSLPKASPVTTSPTAATTQNPVLSKLLMADQDSPLDLTVRKSQSEPSEQDGVLDLSTKKSPCAGSTSLSHSPGCSSTQGNGENSTEAKAVDSNNQSKSPLEKFMVKLCTHHQKQFIRVLNDLYTESQPGTEDLQPSDSGAMDVSTCNAGCAQLSTKHKEKDALCLDMKSSASVDLFVDSSDSHSPLHLTEQTPKKPPPEINPVDGRENALTVVQKDSSELPTTKSNSINSSSVDSFTPGYLTASNCSSVNFHHIPKILEGQTTGQEQDTNVNICEDGKDHMQSSALVESLITVKMAAENSEEGNTCIIPQRNLFKALSEEAWNSGFMGNSSRTADKENTLQCPKTPLRQDLEANEQDARPKQENHLHSLGRNKVGYHLHPSDKGQFDHSKDGWLGPGPMPAVHKAANGHSRTKMISTSIKTARKSKRASGLRINDYDNQCDVVYISQPITECHFENQKSILSSRKTARKSTRGYFFNGDCCELPTVRTLARNLHSQEKASCSALASEAVFTPKQTLTIPAPRHTVDVQLPREDNPEEPSKEITSHEEGGGDVSPRKEPQEPEVCPTKIKPNLSSSPRSEETTASSLVWPLPAHLPEEDLPEGGSTVSAPTASGMSSPEHNQPPVALLDTEEMSVPQDCHLLPSTESFSGGVSEDVISRPHSPPEIVSREESPQCSENQSSPMGLEPPMSLGKAEDNQSISAEVESGDTQELNVDPLLKESSTFTDENPSETEESEAAGGIGKLEGEDGDVKCLSEKDTYDTSIDSLEENLDKKKKGKKFPEASDRCLRSQLSDSSSADRCLRNQSSDSSSACLEIKVPKNPSAKRSKKEGHPGGTTPKGLLPDSFHTETLEDTEKPSVNERPSEKDAEQEGEGGGIITRQTLKNMLDKEVKELRGEIFPSRDPITTAGQPLPGERLEIYVQSKMDEKNAHIPSESIACKRDPEQAKEEPGHIPTQHVEEAVNEVDNENTQQKDDESDAPCSSLGLSSSGSGDAARAPKSVPRPKRLTSSTYNLRHAHSLGSLDASKVTSEKEAAQVNPIMPKENGASESGDPLDEDDVDTVVDEQPKFMEWCAEEENQELIANFNAQYMKVQKGWIQLEKEGQPTPRARNKSDKLKEIWKSKKRSRKCRSSLESQKCSPVQMLFMTNFKLSNVCKWFLETTETRSLVIVKKLNTRLPGDVPPVKHPLQKYAPSSLYPSSLQAERLKKHLKKFPGATPAKNNWKMQKLWAKFRENPDQVEPEDGSDVSPGPNSEDSIEEVKEDRNSHPPANLPTPASTRILRKYSNIRGKLRAQQRLIKNEKMECPDALAVESKPSRKSVCINPLMSPKLALQVDADGFPVKPKSTEGMKGRKGKQVSEILPKAEVQSKRKRTEGSSPPDSKNKGPTVKASKEKHADGATKTPAAKRPAARDRSSQPPKKTSLKENKVKIPKKSAGKSCPPSRKEKENTNKRPSQSIASETLTKPAKQKGAGESSSRPQKATNRKQSSGKTRARPSTKTPESSAAQRKRKLKAKLDCSHSKRRRLDAK
stoichiometry N (EED-GFP): ~0.06 relative to the core subunits

B9: AD-002 (natural protein)
chain: MTTAARPTFEPARGGRGKGEGDLSQLSKQYSSRDLPSHTKIKYRQTTQDAPEEVRNRDFRRELEERERAAAREKNRDRPTREHTTSSSVSKKPRLDQIPAANLDADDPLTDEEDEDFEEESDDDDTAALLAELEKIKKERAEEQARKEQEQKAEEERIRMENILSGNPLLNLTGPSQPQANFKVKRRWDDDVVFKNCAKGVDDQKKDKRFVNDTLRSEFHKKFMEKYIK
stoichiometry N (CDC5L–GFP): 0.36 relative to CDC5L
stoichiometry with CDC5L as a dimer (CDC5L 2) (CDC5L–GFP): 0.72 per CDC5L dimer
